Test [1] deals with T1, human GP130 extracellular domain expressed with a C-terminal myc-myc-hexahistidine tag (human, UniProt P40189 23-619).
T1 construct: also called hGP130-MMH; hGP130-mmH
In words: SPR, bsAb captured by anti-hFc, 25C. In outline: (§1)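 Anti-hFc-captured bispecific antibodies received 3-fold serial dilutions of LEPR or GP130 (100 nM–3.7 nM) in HBS-ET, pH 7.4, injected for 4 min with 10 min dissociation at 25 °C or 37 °C. ka and kd came from a 1:1 binding model with mass transport limitation, and KD and t½ were calculated from these rate constants.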
(In general: Surface plasmon resonance follows binding to a sensor surface in real time, without labels.)

In test [2] the target is T2, Macaca Fascicularis GP130 extracellular domain expressed with a C-terminal myc-myc-hexahistidine tag (Macaca fascicularis, UniProt P40189 23-619 (human entry)).
T2 construct: also called mfGP130-MMH; mfGP130-mmH
T2 chain: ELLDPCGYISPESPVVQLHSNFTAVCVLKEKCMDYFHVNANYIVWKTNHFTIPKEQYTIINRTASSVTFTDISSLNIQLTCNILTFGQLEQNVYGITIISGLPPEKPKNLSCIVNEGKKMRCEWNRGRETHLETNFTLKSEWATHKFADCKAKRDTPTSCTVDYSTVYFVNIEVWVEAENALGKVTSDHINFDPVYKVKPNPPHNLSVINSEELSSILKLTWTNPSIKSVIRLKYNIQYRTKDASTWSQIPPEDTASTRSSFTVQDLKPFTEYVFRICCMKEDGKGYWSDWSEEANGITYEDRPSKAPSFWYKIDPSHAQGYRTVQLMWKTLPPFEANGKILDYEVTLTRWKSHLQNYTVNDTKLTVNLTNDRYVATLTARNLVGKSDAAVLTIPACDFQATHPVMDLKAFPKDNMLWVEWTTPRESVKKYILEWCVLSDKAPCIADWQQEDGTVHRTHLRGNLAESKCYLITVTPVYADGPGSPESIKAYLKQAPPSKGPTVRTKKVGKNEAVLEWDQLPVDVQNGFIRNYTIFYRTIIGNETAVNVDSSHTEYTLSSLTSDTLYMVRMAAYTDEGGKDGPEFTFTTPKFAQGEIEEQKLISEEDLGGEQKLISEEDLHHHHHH
As to the kind of experiment: SPR, bsAb captured by anti-hFc, 25C. Put shortly: as §1

In test [3] the target is T3, full length human GP130 (L2V natural variant) on HEK293/Stat3-luc/gp130-2X Sort cells (human, UniProt P40189 23-918).
T3 construct: whole, on cells; Stably over-expressed on HEK293 cells, sorted twice for high expression; also called HEK293/gp130 2X Sort
T3 sequence (looked up): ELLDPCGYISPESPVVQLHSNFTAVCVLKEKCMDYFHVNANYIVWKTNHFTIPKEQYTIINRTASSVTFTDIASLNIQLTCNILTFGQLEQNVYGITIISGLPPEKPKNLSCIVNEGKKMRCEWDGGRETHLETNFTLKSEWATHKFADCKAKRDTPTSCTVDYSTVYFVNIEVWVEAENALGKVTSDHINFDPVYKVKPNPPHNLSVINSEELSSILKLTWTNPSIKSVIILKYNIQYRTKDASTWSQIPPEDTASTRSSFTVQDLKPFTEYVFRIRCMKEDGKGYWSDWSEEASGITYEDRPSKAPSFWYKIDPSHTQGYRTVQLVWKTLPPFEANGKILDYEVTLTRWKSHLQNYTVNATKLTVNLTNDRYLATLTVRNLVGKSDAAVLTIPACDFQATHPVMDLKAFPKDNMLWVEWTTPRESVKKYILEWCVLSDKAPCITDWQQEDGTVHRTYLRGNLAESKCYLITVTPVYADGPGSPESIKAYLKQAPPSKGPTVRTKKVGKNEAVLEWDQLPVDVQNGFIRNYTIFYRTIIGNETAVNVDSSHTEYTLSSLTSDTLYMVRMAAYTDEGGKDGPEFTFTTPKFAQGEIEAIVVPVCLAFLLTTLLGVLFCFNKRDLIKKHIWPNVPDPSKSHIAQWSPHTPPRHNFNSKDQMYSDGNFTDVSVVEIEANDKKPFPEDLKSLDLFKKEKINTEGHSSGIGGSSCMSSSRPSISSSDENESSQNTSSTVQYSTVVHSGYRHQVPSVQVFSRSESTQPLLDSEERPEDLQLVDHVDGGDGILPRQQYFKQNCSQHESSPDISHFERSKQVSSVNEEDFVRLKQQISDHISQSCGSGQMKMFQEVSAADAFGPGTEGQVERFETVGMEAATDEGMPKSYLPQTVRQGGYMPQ
In words: FACS, 200 nM antibody on HEK293/gp130 2X Sort cells. On the procedure:
For the FACS analysis, 0.5×10^6 cells/well of HEK293 parental cells, HEK293/Stat3-luc/gp130-2 X Sort cells, and HEK293/hLEPR-GPI cells, were incubated with 200 nM of the conventional antibodies against either GP130 or LEPR or with LEPRxGP130 bispecific antibodies, along with isotype control antibodies at 4° C. in PBS (without calcium and magnesium) containing 2% FBS.
Cells were fixed using BD CytoFix™ (Becton Dickinson, #554655) and analyzed on an IQue® (Intellicyt) Flow Cytometer. Unstained and secondary antibody alone controls were also tested for all cell lines. The results were analyzed using ForeCyt® (IntelliCyt) and FlowJo version 10 softwares to determine the geometric means of fluorescence for viable cells.
(In flow cytometry, cells or beads pass a laser one at a time.)

The results in this text go back to patent publication US20240158497A1 (published 2024).

The term Kd denotes the equilibrium constant for the complex coming apart. Low readings indicate a tighter complex, high ones a looser complex. Usually koff stands for the rate constant with which the complex falls apart. For orientation: kon means the rate constant with which the complex forms. As usually defined, the t½ is the time in which the quantity being followed falls by half. Read a high t½ as slow loss.

B1: bsAb21236D (bispecific antibody, V domains shown)
VH 1: QVQLQESGPGLVKPSQTLSLTCTVSGGSISSGGDYWSWIRQLPGKGLEWIGYIYYSGSAYYNPSLKSRGTISIDTSKNQFSLKLTSVTAADTAVYFCVKLRFLEWFLGGWFGPWGQGTLVTVSS
VH 2: QVQLVESGGGLVKPGGSLRLSCAASGFTFSDYYMTWIRQTPGKGLDWVSYISSSGTNKYNADSVKGRFTISRDNAKNSLYLQMNSLRAEDTAVYYCVRDPPWGMDVWGQGTTVTVSS
VL: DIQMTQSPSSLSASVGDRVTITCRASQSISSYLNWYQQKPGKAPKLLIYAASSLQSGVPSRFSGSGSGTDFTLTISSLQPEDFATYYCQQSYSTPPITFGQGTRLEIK
notes: LEPR x GP130 bispecific with common light chain; also called H4H21236D; bsAb21236 (LEPR × GP130)
For the molecule B1, in test [1], the “100 nM hGP130-MMH Bound (RU)” value stood at 12 RU; the affinity, expressed as Kd, was 140 nM; the koff came to 0.00426 s⁻¹; the kon worked out at 30300 M⁻¹ s⁻¹. In test [1], this molecule had a t½ of 2.7 min. In addition, in test [2], the “100 nM mfGP130-MMH Bound (RU)” value came out at 21 RU, the Kd was 104 nM, the off-rate (koff) was found to be 0.00305 s⁻¹ and the kon was 29400 M⁻¹ s⁻¹. This molecule also registered a t½ in test [2] of 3.8 min. In test [3], the “Binding Ratio, normalized to unstained sample (FL4-A)” value was 132 fold.

B2: bsAb21237D (bispecific antibody, V domains shown)
VH 1: EVQLVESGGGLVQPGGSLRLSCAASGFTFSNYGMTWVRQAPGKGLEWVSAITGGGGSTYYSNSVKGRFTISRDNSKNTVYLRMNSVRAEDTAVYYCAKYKWNFVDDWGQGTTVTVSS
VH 2: QVQLVESGGGLVKPGGSLRLSCAASGFTFSDYYMTWIRQTPGKGLDWVSYISSSGTNKYNADSVKGRFTISRDNAKNSLYLQMNSLRAEDTAVYYCVRDPPWGMDVWGQGTTVTVSS
VL: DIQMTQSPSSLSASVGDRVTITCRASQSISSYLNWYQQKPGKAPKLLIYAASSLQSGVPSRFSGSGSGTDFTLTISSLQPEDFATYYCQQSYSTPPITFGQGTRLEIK
notes: LEPR x GP130 bispecific with common light chain; also called H4H21237D; bsAb21237 (LEPR × GP130)
With B2, in test [1], the “100 nM hGP130-MMH Bound (RU)” value stood at 17 RU, the Kd is 55.2 nM, the koff turned out to be 0.00274 s⁻¹ and the kon turned out to be 49600 M⁻¹ s⁻¹. This molecule displayed a t½ in test [1] of 4 min. In test [2], the “100 nM mfGP130-MMH Bound (RU)” value worked out at 18 RU, the Kd turned out to be 53.4 nM, the koff was 0.00213 s⁻¹ and the kon is 39800 M⁻¹ s⁻¹. In addition, in test [2], the t½ came out at 5 min. The “Binding Ratio, normalized to unstained sample (FL4-A)” value in test [3] was determined as 169 fold.
